Bridge positions count the residues as written; N and C are the ends. Square brackets hold non-standard residues; d marks the D form. Ends that are not written are not given here. Aib = CC(C)(N)C(=O)O
test: pI of native glucagon and glucagon derivatives; format: physicochemical
Procedure: Accordingly, as described in Table 1 below, a native glucagon and glucagon derivatives having equivalent activity thereto were first prepared. Referring to WO 2016/108586, WO 2017/003191, and WO 2018/004283, the glucagon derivatives were synthesized, and pl and in vitro activity thereof were measured.

**Q.** Which pl does the source give for “HSQGTFTSDYSKYLDCDRAQDFVQWLMNT (glucagon derivative) [SEQ ID NO: 2]” here?
**A.** 4.56

**Q.** With “HSQGTFTSDYSKYLDCERAQDFVQWLMNT (glucagon derivative) [SEQ ID NO: 3]” as the sequence, how does the pl read?
**A.** 4.66

**Q.** With “HSQGTFTSDYSKYLDSCDAQDFVQWLMNT (glucagon derivative) [SEQ ID NO: 4]” as the sequence, how does the pl read?
**A.** 4.13

**Q.** With “HSQGTFTSDYSKYLDSCEADDFVQWLMNT (glucagon derivative) [SEQ ID NO: 6]” as the sequence, how does the pl read?
**A.** 4.03

**Q.** For “HSQGTFTSDYSKYLDSCEAQDFVQWLMNT (glucagon derivative) [SEQ ID NO: 5]”, which pl is on record?
**A.** 4.22

**Q.** For “SQGTFTSDYSKYLDECRAKEFVQWLMNT (lactam 15-19) [SEQ ID NO: 32]”, which pl is on record?
**A.** 4.78

**Q.** Which pl does the source give for “WXQGTFTSDYSKCLDERRAKDFVQWLMNT (W[Aib]QGTFTSDYSKCLDERRAKDFVQWLMNT; lactam 16-20) [SEQ ID NO: 30]” here?
**A.** 4.44

**Q.** Which pl does the source give for “WXQGTFTSDYSKYCDERRAKEFVQWLMNT (W[Aib]QGTFTSDYSKYCDERRAKEFVQWLMNT; lactam 16-20) [SEQ ID NO: 34]” here?
**A.** 6.21

**Q.** With “WXQGTFTSDYSKYLDECRAKDFVQWLMNT (W[Aib]QGTFTSDYSKYLDECRAKDFVQWLMNT; lactam 16-20) [SEQ ID NO: 26]” as the sequence, how does the pl read?
**A.** 4.68

**Q.** For “WXQGTFVSDYSKYLDECRAKDFVQWLMNT (W[Aib]QGTFVSDYSKYLDECRAKDFVQWLMNT; lactam 16-20) [SEQ ID NO: 28]”, which pl is on record?
**A.** 4.68

**Q.** For “YSQGTFTSDYSKYLDSCEADDFVQWLMNT (glucagon derivative) [SEQ ID NO: 7]”, which pl is on record?
**A.** 3.71

**Q.** For “YXQGTFCSDYSKYLDERRAKDFVQWLMNT (Y[Aib]QGTFCSDYSKYLDERRAKDFVQWLMNT; lactam 16-20) [SEQ ID NO: 41]”, which pl is on record?
**A.** 6.03

**Q.** For “YXQGTFCSDYSKYLDERRAKEFVQWLMNT (Y[Aib]QGTFCSDYSKYLDERRAKEFVQWLMNT; lactam 16-20) [SEQ ID NO: 38]”, which pl is on record?
**A.** 6.15

**Q.** With “YXQGTFCSDYSKYLDSRRAQDFVQWLMNT (Y[Aib]QGTFCSDYSKYLDSRRAQDFVQWLMNT) [SEQ ID NO: 42]” as the sequence, how does the pl read?
**A.** 6.03

**Q.** Which pl does the source give for “YXQGTFTSDCSKYLDERRAKEFVQWLMNT (Y[Aib]QGTFTSDCSKYLDERRAKEFVQWLMNT; lactam 16-20) [SEQ ID NO: 36]” here?
**A.** 6.21

**Q.** Which pl does the source give for “YXQGTFTSDCSKYLDSRRAQDFVQWLMNT (Y[Aib]QGTFTSDCSKYLDSRRAQDFVQWLMNT) [SEQ ID NO: 43]” here?
**A.** 6.03

**Q.** With “YXQGTFTSDYSCYLDEKRAKEFVQWLMNT (Y[Aib]QGTFTSDYSCYLDEKRAKEFVQWLMNT) [SEQ ID NO: 45]” as the sequence, how does the pl read?
**A.** 4.78

**Q.** Which pl does the source give for “YXQGTFTSDYSCYLDSRRAQDFVQWLMNT (Y[Aib]QGTFTSDYSCYLDSRRAQDFVQWLMNT) [SEQ ID NO: 13]” here?
**A.** 4.43

**Q.** Which pl does the source give for “YXQGTFTSDYSKCLDEKRAKEFVQWLMNT (Y[Aib]QGTFTSDYSKCLDEKRAKEFVQWLMNT; lactam 16-20) [SEQ ID NO: 24]” here?
**A.** 6.21

**Q.** Which pl does the source give for “YXQGTFTSDYSKCLDERRAKDFVQWLMNT (Y[Aib]QGTFTSDYSKCLDERRAKDFVQWLMNT; lactam 16-20) [SEQ ID NO: 29]” here?
**A.** 6.15

**Q.** Which pl does the source give for “YXQGTFTSDYSKYCDEKRAKEFVQWLMNT (Y[Aib]QGTFTSDYSKYCDEKRAKEFVQWLMNT; lactam 16-20) [SEQ ID NO: 23]” here?
**A.** 6.20

**Q.** Which pl does the source give for “YXQGTFTSDYSKYCDERRAKEFVQWLMNT (Y[Aib]QGTFTSDYSKYCDERRAKEFVQWLMNT; lactam 16-20) [SEQ ID NO: 35]” here?
**A.** 6.2

**Q.** For “YXQGTFTSDYSKYLCEKRAKEFVQWLMNT (Y[Aib]QGTFTSDYSKYLCEKRAKEFVQWLMNT; lactam 16-20) [SEQ ID NO: 19]”, which pl is on record?
**A.** 8.12

**Q.** For “YXQGTFTSDYSKYLCEKRAQDFVVWLMNT (Y[Aib]QGTFTSDYSKYLCEKRAQDFVVWLMNT) [SEQ ID NO: 15]”, which pl is on record?
**A.** 6.11

**Q.** For “YXQGTFTSDYSKYLDCKRAKEFVQWLMNT (Y[Aib]QGTFTSDYSKYLDCKRAKEFVQWLMNT; lactam 17-21) [SEQ ID NO: 31]”, which pl is on record?
**A.** 8.12

**Q.** With “YXQGTFTSDYSKYLDCKRAKEFVQWLMNT [SEQ ID NO: 14] (Y[Aib]QGTFTSDYSKYLDCKRAKEFVQWLMNT)” as the sequence, how does the pl read?
**A.** 8.12

**Q.** Which pl does the source give for “YXQGTFTSDYSKYLDCRRAQVFVQWLMRT (Y[Aib]QGTFTSDYSKYLDCRRAQVFVQWLMRT) [SEQ ID NO: 16]” here?
**A.** 9.11

**Q.** With “YXQGTFTSDYSKYLDCVRAQDFVQWLMRT (Y[Aib]QGTFTSDYSKYLDCVRAQDFVQWLMRT) [SEQ ID NO: 17]” as the sequence, how does the pl read?
**A.** 6.03

**Q.** Which pl does the source give for “YXQGTFTSDYSKYLDECRAKEFVQWLMNT (Y[Aib]QGTFTSDYSKYLDECRAKEFVQWLMNT; lactam 16-20) [SEQ ID NO: 20]” here?
**A.** 4.78

**Q.** With “YXQGTFTSDYSKYLDEKCAKEFVQWLMNT [SEQ ID NO: 11] (Y[Aib]QGTFTSDYSKYLDEKCAKEFVQWLMNT)” as the sequence, how does the pl read?
**A.** 4.78

**Q.** With “YXQGTFTSDYSKYLDEKCAKEFVQWLMNT [SEQ ID NO: 21] (Y[Aib]QGTFTSDYSKYLDEKCAKEFVQWLMNT; lactam 16-20)” as the sequence, how does the pl read?
**A.** 4.78

**Q.** With “YXQGTFTSDYSKYLDEKRAKCFVQWLMNT (Y[Aib]QGTFTSDYSKYLDEKRAKCFVQWLMNT; lactam 16-20) [SEQ ID NO: 25]” as the sequence, how does the pl read?
**A.** 8.12

**Q.** With “YXQGTFTSDYSKYLDEKRAKEFVQWLMNTC (Y[Aib]QGTFTSDYSKYLDEKRAKEFVQWLMNTC; lactam 16-20) [SEQ ID NO: 12]” as the sequence, how does the pl read?
**A.** 6.20

**Q.** For “YXQGTFTSDYSKYLDEKRCKEFVQWLMNT (Y[Aib]QGTFTSDYSKYLDEKRCKEFVQWLMNT; lactam 16-20) [SEQ ID NO: 22]”, which pl is on record?
**A.** 6.20

**Q.** With “YXQGTFTSDYSKYLDERRAKEFVQWLMNTC (Y[Aib]QGTFTSDYSKYLDERRAKEFVQWLMNTC; lactam 16-20) [SEQ ID NO: 37]” as the sequence, how does the pl read?
**A.** 6.21

**Q.** With “YXQGTFTSDYSKYLDSCDADDFVVWLINT (Y[Aib]QGTFTSDYSKYLDSCDADDFVVWLINT) [SEQ ID NO: 10]” as the sequence, how does the pl read?
**A.** 3.66

**Q.** For “YXQGTFTSDYSKYLDSCDAQDFVQWLINT (Y[Aib]QGTFTSDYSKYLDSCDAQDFVQWLINT) [SEQ ID NO: 8]”, which pl is on record?
**A.** 3.77

**Q.** Which pl does the source give for “YXQGTFTSDYSKYLDSCDAQDFVVWLINT (Y[Aib]QGTFTSDYSKYLDSCDAQDFVVWLINT) [SEQ ID NO: 9]” here?
**A.** 3.77

**Q.** With “YXQGTFTSDYSKYLDSRRACDFRLWLMNT (Y[Aib]QGTFTSDYSKYLDSRRACDFRLWLMNT) [SEQ ID NO: 18]” as the sequence, how does the pl read?
**A.** 8.15

**Q.** For “YXQGTFTSDYSKYLDSRRAQDFVQWLMNT (X non-natural residue; glucagon derivative; (2) Xaa is aminoisobutyric acid (Aib)) [SEQ ID NO: 33]”, which pl is on record?
**A.** 6.04

**Q.** For “YXQGTFTSDYSKYLDSRRAQDFVQWLMNTC (glucagon derivative; (2) Xaa is aminoisobutyric acid (Aib)) [SEQ ID NO: 44]”, which pl is on record?
**A.** 6.21

**Q.** With “YXQGTFVSDCSKYLDERRAKDFVQWLMNT (Y[Aib]QGTFVSDCSKYLDERRAKDFVQWLMNT; lactam 16-20) [SEQ ID NO: 39]” as the sequence, how does the pl read?
**A.** 6.15

**Q.** With “YXQGTFVSDYSKYLDECRAKDFVQWLMNT (Y[Aib]QGTFVSDYSKYLDECRAKDFVQWLMNT; lactam 16-20) [SEQ ID NO: 27]” as the sequence, how does the pl read?
**A.** 4.68

**Q.** Which pl does the source give for “YXQGTFVSDYSKYLDERRAKDFVQWLMNTC (Y[Aib]QGTFVSDYSKYLDERRAKDFVQWLMNTC; lactam 16-20) [SEQ ID NO: 40]” here?
**A.** 6.15

Reference: patent US20240197834A1, “PHARMACEUTICAL COMPOSITION FOR PREVENTING OR TREATING CHRONIC RENAL DISEASE INCLUDING GLUCAGON DERIVATIVE” (HANMI PHARM. CO., LTD., priority 2021, published 2024)
